The target of one series is T1, GST-Sav^362-607, Q9VCR6.
T1 chain: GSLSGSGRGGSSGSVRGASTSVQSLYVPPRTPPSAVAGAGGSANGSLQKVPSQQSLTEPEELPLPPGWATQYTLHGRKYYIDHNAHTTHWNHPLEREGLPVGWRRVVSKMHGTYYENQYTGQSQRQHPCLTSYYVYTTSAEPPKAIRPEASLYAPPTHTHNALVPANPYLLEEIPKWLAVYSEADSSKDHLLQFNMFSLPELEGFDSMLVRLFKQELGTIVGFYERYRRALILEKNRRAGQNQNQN

In series [1] the target is GST-Tsc1 (control GST fusion protein).
For the next series, the target named is T2, GST-Wts^68-414, Q9VA38.
T2 chain: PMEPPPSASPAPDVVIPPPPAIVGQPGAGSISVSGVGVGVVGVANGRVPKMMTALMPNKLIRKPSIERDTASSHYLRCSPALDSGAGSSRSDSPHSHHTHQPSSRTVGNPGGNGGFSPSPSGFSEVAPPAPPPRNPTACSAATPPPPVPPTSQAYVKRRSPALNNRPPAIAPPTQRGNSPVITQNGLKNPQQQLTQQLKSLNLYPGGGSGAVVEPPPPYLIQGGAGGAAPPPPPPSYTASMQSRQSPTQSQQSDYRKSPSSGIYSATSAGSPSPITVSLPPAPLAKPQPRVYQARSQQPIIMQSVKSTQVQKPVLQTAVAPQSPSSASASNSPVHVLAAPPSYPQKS

For series [2], the target named is T3, endogenous Sav (Salvador), Q9VCR6.
T3 chain: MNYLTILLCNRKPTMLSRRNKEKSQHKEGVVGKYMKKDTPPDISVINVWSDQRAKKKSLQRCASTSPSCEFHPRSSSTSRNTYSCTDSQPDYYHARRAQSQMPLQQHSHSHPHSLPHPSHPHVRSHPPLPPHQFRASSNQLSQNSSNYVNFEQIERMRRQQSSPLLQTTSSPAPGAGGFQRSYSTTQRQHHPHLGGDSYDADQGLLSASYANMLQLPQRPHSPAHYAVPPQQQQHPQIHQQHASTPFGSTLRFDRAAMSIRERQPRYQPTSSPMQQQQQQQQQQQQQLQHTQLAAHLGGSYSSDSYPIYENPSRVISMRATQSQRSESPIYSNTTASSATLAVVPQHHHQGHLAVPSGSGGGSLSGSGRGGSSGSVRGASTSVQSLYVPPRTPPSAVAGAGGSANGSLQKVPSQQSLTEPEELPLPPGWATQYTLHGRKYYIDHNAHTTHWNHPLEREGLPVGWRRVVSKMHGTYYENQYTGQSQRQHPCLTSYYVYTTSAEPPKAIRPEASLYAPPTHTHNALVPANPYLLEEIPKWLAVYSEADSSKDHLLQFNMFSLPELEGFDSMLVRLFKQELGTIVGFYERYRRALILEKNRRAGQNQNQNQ

B1: Myc-tagged Hpo (protein)
chain: MEQKLISEEDLNESEPEVTSVVDMKSPNISSSCSFFKLKKLSEESLLQPPEKVFDIMYKLGEGSYGSVYKAVHKESSSIVAIKLVPVESDLHEIIKEISIMQQCDSPYVVRYYGSYFKQYDLWICMEYCGAGSVSDIMRLRKKTLTEDEIATILSDTLQGLVYLHLRRKIHRDIKAANILLNTEGYAKLADFGVAGQLTDTMAKRNTVIGTPFWMAPEVIEEIGYDCVADIWSLGITALEMAEGKPPYGEIHPMRAIFMIPQKPPPSFREPDRWSTEFIDFVSKCLVKEPDDRATATELLEHEFIRNAKHRSILKPMLEETCAIREQQRANRSFGGVLAASQAKSLATQENGMQQHITDNAFMEDPGTLVPEKFGEYQQSSASDATMIAHAEQGVDEGTLGPGGLRNLSKAAAPAAASSAASPLDMPAVDSGTMVELESNLGTMVINSDSDDSTTAKNNDDQKPRNRYRPQFLEHFDRKNAGDGRGDEKPIATEYSPAAAEQQQQQQQQQQQQQQDEQHLASGANDLNNWEHNMEMQFQQISAINQYGLQQHQQQQQVLMAYPLMNEQLIALNNQPNLLLSNAAPMGQQGIPAAAPAQPPPAYQNQHMHTQSHAYVEGEFEFLKFLTFDDLNQRLCNIDHEMELEIEQLNKKYNAKRQPIVDAMNAKRKRQQNINNNLIKI
Take B1: the “in vitro kinase assay (32P phosphorylation of the GST substrate)” value with GST-Sav^362-607, Q9VCR6 is reported as “myc-tagged Hpo protein specifically phosphorylated a GST fusion protein containing the Hpo-binding region of Sav”; in series [1] it was “no signals were detected using a control substrate”; in the series with GST-Wts^68-414, Q9VA38, “a GST fusion protein containing this region of Wts was phosphorylated by Hpo”.

B2: kinase dead Hpo^K71R mutant (UAS-hpo^K71R) (protein)
chain: MSEPEVTSVVDMKSPNISSSCSFFKLKKLSEESLLQPPEKVFDIMYKLGEGSYGSVYKAVHKESSSIVAIRLVPVESDLHEIIKEISIMQQCDSPYVVRYYGSYFKQYDLWICMEYCGAGSVSDIMRLRKKTLTEDEIATILSDTLQGLVYLHLRRKIHRDIKAANILLNTEGYAKLADFGVAGQLTDTMAKRNTVIGTPFWMAPEVIEEIGYDCVADIWSLGITALEMAEGKPPYGEIHPMRAIFMIPQKPPPSFREPDRWSTEFIDFVSKCLVKEPDDRATATELLEHEFIRNAKHRSILKPMLEETCAIREQQRANRSFGGVLAASQAKSLATQENGMQQHITDNAFMEDPGTLVPEKFGEYQQSSASDATMIAHAEQGVDEGTLGPGGLRNLSKAAAPAAASSAASPLDMPAVDSGTMVELESNLGTMVINSDSDDSTTAKNNDDQKPRNRYRPQFLEHFDRKNAGDGRGDEKPIATEYSPAAAEQQQQQQQQQQQQQQDEQHLASGANDLNNWEHNMEMQFQQISAINQYGLQQHQQQQQVLMAYPLMNEQLIALNNQPNLLLSNAAPMGQQGIPAAAPAQPPPAYQNQHMHTQSHAYVEGEFEFLKFLTFDDLNQRLCNIDHEMELEIEQLNKKYNAKRQPIVDAMNAKRKRQQNINNNLIKI
On to B2, for which the “increase in wing size (MS1096 Gal4 driver)” value in series [2] was “expression of the kinase dead Hpo^K71R mutant results in 35% increase in wing size”.

These data come from patent US20050053592.
